What was measured:
[1] = target: HEV ORF3 protein fused to the GAL4 binding domain; test: yeast two-hybrid quantitative α-galactosidase assay; conditions: triplicate samples, parent: est. 11, read off a plot
[2] = target: HEV methyltransferase fused to the GAL4 binding domain (UniProt P33424); test: as above; conditions: triplicate samples, parent: est. 8.7, read off a plot
[3] = target: GST fused X-domain (Hepatitis E virus) (UniProt P33424); test: pull-down; ~500 fmol ORF3-His or ~500 fmol Met-His alone with 500 fmol GST-X; bound fraction against input by band intensity
[4] = target: GST fused X-domain (Hepatitis E virus) (UniProt P33424); test: pull-down; competition: ORF3-His and Met-His together with 500 fmol GST-X, equimolar (~500 fmol) or with 1 and 2 pmol of one of them

In the case of “HEV X-domain (macro domain) fused to the GAL4 activation domain (from UniProt P33424) R93E”, the response (normalized α-gal units) ([1]; P=0.077 vs wild type X) is reported as 13 and the response (normalized α-gal units) ([2]; P=0.51 vs wild type X) is reported as 7.6.

With “His-tagged ORF3 (pRSET ORF3) (from UniProt O90299 1-114) (natural protein)” the percent of input pulled down [3] was 25% and the percent of input in the bound fraction with equimolar Met-His present [4] was 10%.

“HEV X-domain (macro domain) fused to the GAL4 activation domain (from UniProt P33424) L94R” gave a response (normalized α-gal units) ([1]; P=0.056 vs wild type X) of 13 and a response (normalized α-gal units) ([2]; P=0.82 vs wild type X) of 8.3.

“HEV X-domain (macro domain) fused to the GAL4 activation domain (from UniProt P33424) R93E; L101E; L102E” was tested, and the response (normalized α-gal units) [1] was 2.9 and the response (normalized α-gal units) [2] was 1.6.

With “HEV X-domain (macro domain) fused to the GAL4 activation domain (from UniProt P33424) I66E; I67E” the response (normalized α-gal units) ([1]; P=0.002 vs wild type X) was 6.2.

“HEV X-domain (macro domain) fused to the GAL4 activation domain (from UniProt P33424) L101E; L102E” showed a response (normalized α-gal units) [1] of 3.2 and a response (normalized α-gal units) [2] of 1.9.
